According to patent US20100298220A1:

Biological target: FGF receptor (on NIH 3T3 fibroblasts)
Assay: cell-based or functional assay

## Ala66→Cys mutant of human FGF-1 (140 amino acid form, His-tagged), oxidized form (from UniProt P05230 16-155) (ligand)
  EC50 of mitogenic activity, NIH 3T3 fibroblast proliferation, in the absence of heparin: 5.43 ng/mL
  EC50 of mitogenic activity, NIH 3T3 fibroblast proliferation, in the presence of 10 U/ml heparin: 0.36 ng/mL
  fold increase in mitogenic activity relative to wild-type FGF-1, in the absence of added heparin: 10 fold

## wild-type human FGF-1, 140 amino acid form, with an additional amino-terminal six His tag (from UniProt P05230 16-155) (ligand)
  EC50 of mitogenic activity, NIH 3T3 fibroblast proliferation, in the absence of heparin: 58.4 ng/mL
  EC50 of mitogenic activity, NIH 3T3 fibroblast proliferation, in the presence of 10 U/ml heparin: 0.48 ng/mL
